The values that follow come from FireProtDB (doi:10.1371/journal.pone.0064824).

Values joined by “and” are separate entries in the source; they are usually repeats but may differ in a detail not shown here. Equal values may be shown once.

The conditions of this data set: Homo sapiens, pH 7.5, Tris-HCl 20mM; for denaturant m value / unfolding free energy / ddG of mutation (higher = less stable): 10 °C, Urea; for Tm: Thermal.
The mark [1] stands for this setting: CD, transition: 2, structure 1XWS.

Chain of Serine/threonine-protein kinase pim-1 Y53H, P11309 (P11309 whole entry Y53H): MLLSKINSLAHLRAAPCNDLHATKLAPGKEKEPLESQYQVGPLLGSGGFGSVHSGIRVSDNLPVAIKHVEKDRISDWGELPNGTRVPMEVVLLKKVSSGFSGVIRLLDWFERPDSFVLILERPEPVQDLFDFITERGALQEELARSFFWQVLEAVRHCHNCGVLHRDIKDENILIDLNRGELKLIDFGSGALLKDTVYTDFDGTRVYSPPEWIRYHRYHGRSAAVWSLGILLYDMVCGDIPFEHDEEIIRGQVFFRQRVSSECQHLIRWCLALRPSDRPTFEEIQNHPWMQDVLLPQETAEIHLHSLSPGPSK
Chain of Serine/threonine-protein kinase pim-1 E142D, P11309 (P11309 whole entry E142D): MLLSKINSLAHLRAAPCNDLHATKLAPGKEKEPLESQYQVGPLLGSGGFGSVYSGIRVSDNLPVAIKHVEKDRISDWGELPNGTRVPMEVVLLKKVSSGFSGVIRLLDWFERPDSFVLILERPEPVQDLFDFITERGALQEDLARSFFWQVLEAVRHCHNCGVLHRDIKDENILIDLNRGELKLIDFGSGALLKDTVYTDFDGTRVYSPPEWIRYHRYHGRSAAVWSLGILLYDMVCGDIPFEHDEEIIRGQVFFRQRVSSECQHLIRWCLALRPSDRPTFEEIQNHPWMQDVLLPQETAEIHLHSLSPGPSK
Chain of Serine/threonine-protein kinase pim-1 wild type, P11309 (P11309 whole entry): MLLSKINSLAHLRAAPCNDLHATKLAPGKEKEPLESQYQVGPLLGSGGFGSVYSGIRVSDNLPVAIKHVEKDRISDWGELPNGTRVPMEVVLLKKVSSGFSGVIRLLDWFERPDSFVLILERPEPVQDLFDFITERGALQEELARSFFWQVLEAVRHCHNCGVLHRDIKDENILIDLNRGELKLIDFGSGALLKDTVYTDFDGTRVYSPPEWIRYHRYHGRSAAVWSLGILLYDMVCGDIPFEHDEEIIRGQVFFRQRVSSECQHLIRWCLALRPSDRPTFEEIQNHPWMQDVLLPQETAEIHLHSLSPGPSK
Chain of Serine/threonine-protein kinase pim-1 E124Q, P11309 (P11309 whole entry E124Q): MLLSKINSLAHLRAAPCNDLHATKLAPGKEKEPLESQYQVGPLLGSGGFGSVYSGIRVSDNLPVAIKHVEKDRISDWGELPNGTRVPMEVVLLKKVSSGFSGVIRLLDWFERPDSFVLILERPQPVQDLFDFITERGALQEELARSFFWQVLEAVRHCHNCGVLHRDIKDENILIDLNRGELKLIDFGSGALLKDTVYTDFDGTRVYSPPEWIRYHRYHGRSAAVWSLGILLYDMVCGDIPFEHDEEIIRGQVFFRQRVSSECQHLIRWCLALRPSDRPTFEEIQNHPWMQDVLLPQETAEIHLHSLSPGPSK
Chain of Serine/threonine-protein kinase pim-1 E135K, P11309 (P11309 whole entry E135K): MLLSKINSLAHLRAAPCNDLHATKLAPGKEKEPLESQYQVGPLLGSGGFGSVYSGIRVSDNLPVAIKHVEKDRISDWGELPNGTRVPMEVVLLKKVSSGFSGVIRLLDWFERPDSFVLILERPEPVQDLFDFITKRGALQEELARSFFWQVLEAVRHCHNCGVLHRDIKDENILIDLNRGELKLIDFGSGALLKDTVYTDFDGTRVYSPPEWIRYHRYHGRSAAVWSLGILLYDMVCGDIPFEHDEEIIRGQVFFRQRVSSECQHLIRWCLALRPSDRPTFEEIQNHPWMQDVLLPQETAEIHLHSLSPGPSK

In the case of “Serine/threonine-protein kinase pim-1 wild type, P11309”, for the setting “CD, transition: 2”, the denaturant m value was 1.2 kcal/mol/M and the unfolding free energy is 6.41 kcal/mol. Moreover, the Tm (CD, transition: 3) is 40.5 °C.

Turning to “Serine/threonine-protein kinase pim-1 E142D, P11309”, under setting [1], the “ddG of mutation (higher = less stable)” value amounted to 3.22 kcal/mol, the denaturant m value came to 0.69 kcal/mol/M, the unfolding free energy turned out to be 3.19 kcal/mol and the Tm turned out to be 40 °C.

For the substance “Serine/threonine-protein kinase pim-1 E135K, P11309”, under setting [1], the “ddG of mutation (higher = less stable)” value worked out at 4.59 kcal/mol, the denaturant m value turned out to be 0.43 kcal/mol/M, the unfolding free energy stood at 1.82 kcal/mol and the melting temperature (Tm) is 40.5 °C.

With “Serine/threonine-protein kinase pim-1 E124Q, P11309”, the unfolding free energy (Fluorescence, transition: 4, structure 1XWS) was 3.46 kcal/mol and 3.08 kcal/mol and 5.22 kcal/mol. The Tm under setting [1] turned out to be 44 °C.

Take “Serine/threonine-protein kinase pim-1 Y53H, P11309”: under setting [1], the “ddG of mutation (higher = less stable)” value came out at 3.3 kcal/mol, the denaturant m value was found to be 0.62 kcal/mol/M and the unfolding free energy was 3.11 kcal/mol.
